The record followed here is patent US20200148784A1 (AGILVAX, published 2020).

Where only a bound is given, the exact number is not on record here.

B1: 11D1/H10 subclone A1 (antibody)
heavy: QVQLQQSGAELVRPGASVKLSCKALGYTFTDYEMHWVKQTPVHGLEWIGAIHPGSGGTAYNQKFKGKATLTADKSSSTAYMELSSLTSEDSAVYYCTRPLYYRYPYYFDYWGQGTTLTVSSESQSFPNVFPLVSCESPLSDKNLVAMGCLARDFLPSTISFTWNYQNNTEVIQGIRTFPTLRTGGKYLATSQVLLSPKSILEGSDEYLVCKIHYGGKNRDLHVPIPAVAEMNPNVNVFVPPRDGFSGPAPRKSKLICEATNFTPKPITVSWLKDGKLVESGFTTDPVTIENKGSTPQTYKVISTLTISEIDWLNLNVYTCRVDHRGLTFLKNVSSTCAASPSTDILTFTIPPSFADIFLSKSANLTCLVSNLATYETLNISWASQSGEPLETKIKIMESHPNGTFSAKGVASVCVEDWNNRKEFVCTVTHRDLPSPQKKFISKPNEVHKHPPAVYLLPPAREQLNLRESATVTCLVKGFSPADISVQWLQRGQLLPQEKYVTSAPMPEPGAPGFYFTHSILTVTEEEWNSGETYTCVVGHEALPHLVTERTVDKSTGKPTLYNVSLIMSDTGGTCY
light: QIVLTQSPAIMSASPGEKVTISCSASSSVSYMYWYQQKPGSSPKPWIYRTSNLASGVPARFSGSGSGTSYSLTISSMEAEDAATYYCQQYHSYPLTFGAGTKLELKRADAAPTVSIFPPSSEQLTSGGASVVCFLNNFYPKDINVKWKIDGSERQNGVLNSWTDQDSKDSTYSMSSTLTLTKDEYERHNSYTCEATHKTSTSPIVKSFNRNEC
B2: 11D1/H10 subclone A5 (antibody)
heavy: B1 heavy
light: B1 light
notes: IgM kappa
B3: 11D1/H10 subclone E1 (antibody)
heavy: B1 heavy
light: B1 light
notes: IgM kappa
B4: 11D1/H10 subclone D5 (antibody)
heavy: B1 heavy
light: B1 light
notes: IgM kappa
B5: 11D1/H10 subclone B9 (antibody)
heavy: B1 heavy
light: B1 light
notes: IgM kappa

This assay deals with T1, human-xCT ECD3 peptide (human).
T1 construct: Coated at 1 µg/mL
T1 peptide: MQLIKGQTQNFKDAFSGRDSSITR
The experiment in a line: ELISA of subclone supernatant against xCT.
B1: the “ELISA O.D. 450” value was at least 0.4.

Regarding B2, the “ELISA O.D. 450” value was at least 0.4.

For the molecule B3, the “ELISA O.D. 450” value was at least 0.4.

B4: the “ELISA O.D. 450” value was at least 0.4.

With B5, the “ELISA O.D. 450” value is at least 0.4.
